The numbers were not newly measured in PMC4476730, which cites them from elsewhere.

One may read the Kd as the free concentration of one partner at which half of the binding sites on the other are occupied at equilibrium, for simple one-to-one binding.

Like-named read-outs stand apart in the source and are kept apart here.

The target in data set [1] is CBP KIX (Homo sapiens) (UniProt Q92793).
Data set [2] shares this target. This is another data set of the same source.

UniProt Q92793, sequence (Q92793 584-669): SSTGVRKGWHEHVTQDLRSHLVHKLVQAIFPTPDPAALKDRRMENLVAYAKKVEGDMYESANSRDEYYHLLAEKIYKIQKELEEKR

As to E2A AD2 (from UniProt P15923), the Kd in the data set with CBP KIX (Homo sapiens) [1] is 17 µM; in the data set with CBP KIX (Homo sapiens) [2], 7.2 µM.
